Source: patent US20250218531A1 (ABSCI, published 2025)
Where a chain is given by its changes, count along the chain named. Where “and” joins values, the source holds several entries; their conditions need not be identical. Equal values may be shown once.

B1: Trastuzumab HCDR3 variant ARDGHYFTYDY (Fab, V domains shown)
VH: EVQLVESGGGLVQPGGSLRLSCAASGFNIKDTYIHWVRQAPGKGLEWVARIYPTNGYTRYADSVKGRFTISADTSKNTAYLQMNSLRAEDTAVYYCARDGHYFTYDYWGQGTLVTVSS
VL: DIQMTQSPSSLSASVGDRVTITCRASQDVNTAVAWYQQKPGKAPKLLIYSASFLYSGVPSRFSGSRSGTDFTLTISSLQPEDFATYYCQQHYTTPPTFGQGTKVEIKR
B2: Trastuzumab HCDR3 variant ATGYSYLRYYD (Fab, V domains shown)
VH: B1 VH with R98T, D99G, G100Y, H101S, F103L, T104R, D106Y, Y107D
VL: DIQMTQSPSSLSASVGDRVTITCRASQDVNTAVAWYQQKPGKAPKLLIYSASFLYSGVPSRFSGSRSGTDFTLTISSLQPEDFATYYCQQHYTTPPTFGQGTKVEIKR
B3: Trastuzumab HCDR3 variant ATGYSYLRFYD (Fab, V domains shown)
VH: B1 VH with R98T, D99G, G100Y, H101S, F103L, T104R, Y105F, D106Y, Y107D
VL: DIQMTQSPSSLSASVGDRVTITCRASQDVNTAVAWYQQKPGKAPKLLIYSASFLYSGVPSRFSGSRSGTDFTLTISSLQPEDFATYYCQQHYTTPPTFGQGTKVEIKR
B4: Trastuzumab HCDR3 variant AKYVLVGSYGV (Fab, V domains shown)
VH: B1 VH with R98K, D99Y, G100V, H101L, Y102V, F103G, T104S, D106G, Y107V
VL: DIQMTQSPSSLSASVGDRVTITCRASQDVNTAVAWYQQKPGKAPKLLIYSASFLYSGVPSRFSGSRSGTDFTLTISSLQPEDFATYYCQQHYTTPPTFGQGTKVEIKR
B5: Trastuzumab HCDR3 variant AAWYSTYYFDY (Fab, V domains shown)
VH: B1 VH with R98A, D99W, G100Y, H101S, Y102T, F103Y, T104Y, Y105F
VL: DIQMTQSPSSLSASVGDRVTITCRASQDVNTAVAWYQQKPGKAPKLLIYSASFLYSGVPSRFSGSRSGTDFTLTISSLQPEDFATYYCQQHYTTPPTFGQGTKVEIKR
B6: Trastuzumab HCDR3 variant ARYSYYRYYFE (Fab, V domains shown)
VH: B1 VH with D99Y, G100S, H101Y, F103R, T104Y, D106F, Y107E
VL: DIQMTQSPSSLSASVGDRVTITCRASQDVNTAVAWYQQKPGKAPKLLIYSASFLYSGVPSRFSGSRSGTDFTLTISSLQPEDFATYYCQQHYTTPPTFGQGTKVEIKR
B7: Trastuzumab HCDR3 variant ARFDLVGAFDY (Fab, V domains shown)
VH: B1 VH with D99F, G100D, H101L, Y102V, F103G, T104A, Y105F
VL: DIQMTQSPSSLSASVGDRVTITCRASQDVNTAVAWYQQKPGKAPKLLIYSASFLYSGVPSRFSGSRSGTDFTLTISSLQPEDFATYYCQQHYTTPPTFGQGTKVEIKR
B8: Trastuzumab HCDR3 variant AINLRGYWMDN (Fab, V domains shown)
VH: B1 VH with R98I, D99N, G100L, H101R, Y102G, F103Y, T104W, Y105M, Y107N
VL: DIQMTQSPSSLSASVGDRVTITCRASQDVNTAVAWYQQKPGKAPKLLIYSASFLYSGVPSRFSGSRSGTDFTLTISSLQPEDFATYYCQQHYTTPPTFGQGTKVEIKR
B9: Trastuzumab HCDR3 variant ASYAGYSPFDY (Fab, V domains shown)
VH: B1 VH with R98S, D99Y, G100A, H101G, F103S, T104P, Y105F
VL: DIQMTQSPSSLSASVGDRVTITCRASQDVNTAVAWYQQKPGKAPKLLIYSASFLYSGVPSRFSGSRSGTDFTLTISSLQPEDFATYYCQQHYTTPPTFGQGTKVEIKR
B10: Trastuzumab HCDR3 variant AKYVASGYSLA (Fab, V domains shown)
VH: B1 VH with R98K, D99Y, G100V, H101A, Y102S, F103G, T104Y, Y105S, D106L, Y107A
VL: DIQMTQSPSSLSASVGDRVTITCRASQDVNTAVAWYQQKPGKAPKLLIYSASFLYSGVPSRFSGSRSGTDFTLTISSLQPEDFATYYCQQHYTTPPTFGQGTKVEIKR
B11: Trastuzumab HCDR3 variant AFPWAGHYMER (Fab, V domains shown)
VH: B1 VH with R98F, D99P, G100W, H101A, Y102G, F103H, T104Y, Y105M, D106E, Y107R
VL: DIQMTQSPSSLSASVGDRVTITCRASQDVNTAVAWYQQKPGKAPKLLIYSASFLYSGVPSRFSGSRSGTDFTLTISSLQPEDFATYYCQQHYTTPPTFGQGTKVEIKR
B12: Trastuzumab HCDR3 variant AADGYRGTYSF (Fab, V domains shown)
VH: B1 VH with R98A, H101Y, Y102R, F103G, D106S, Y107F
VL: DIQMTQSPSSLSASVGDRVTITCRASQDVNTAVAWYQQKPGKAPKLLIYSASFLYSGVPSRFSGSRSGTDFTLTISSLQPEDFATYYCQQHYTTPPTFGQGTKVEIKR
B13: Trastuzumab HCDR3 variant ARYYSDYSYTFSY (Fab, V domains shown)
VH: EVQLVESGGGLVQPGGSLRLSCAASGFNIKDTYIHWVRQAPGKGLEWVARIYPTNGYTRYADSVKGRFTISADTSKNTAYLQMNSLRAEDTAVYYCARYYSDYSYTFSYWGQGTLVTVSS
VL: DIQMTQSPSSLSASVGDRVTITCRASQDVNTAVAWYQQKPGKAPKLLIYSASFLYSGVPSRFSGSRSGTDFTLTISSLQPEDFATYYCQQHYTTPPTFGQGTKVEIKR
B14: Trastuzumab HCDR3 variant ATGSGGGGFSYGY (Fab, V domains shown)
VH: EVQLVESGGGLVQPGGSLRLSCAASGFNIKDTYIHWVRQAPGKGLEWVARIYPTNGYTRYADSVKGRFTISADTSKNTAYLQMNSLRAEDTAVYYCATGSGGGGFSYGYWGQGTLVTVSS
VL: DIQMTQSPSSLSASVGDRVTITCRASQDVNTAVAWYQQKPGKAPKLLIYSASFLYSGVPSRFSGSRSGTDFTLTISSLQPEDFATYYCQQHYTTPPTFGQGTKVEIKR
B15: Trastuzumab HCDR3 variant ASVDLGGFYDFRY (Fab, V domains shown)
VH: B13 VH with R98S, Y99V, Y100D, S101L, D102G, Y103G, S104F, T106D, S108R
VL: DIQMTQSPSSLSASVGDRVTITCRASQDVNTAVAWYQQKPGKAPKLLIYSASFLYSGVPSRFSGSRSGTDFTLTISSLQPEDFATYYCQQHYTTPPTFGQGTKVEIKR
B16: Trastuzumab HCDR3 variant TRWRWGYGYYFDF (Fab, V domains shown)
VH: B13 VH with A97T, Y99W, Y100R, S101W, D102G, S104G, T106Y, S108D, Y109F
VL: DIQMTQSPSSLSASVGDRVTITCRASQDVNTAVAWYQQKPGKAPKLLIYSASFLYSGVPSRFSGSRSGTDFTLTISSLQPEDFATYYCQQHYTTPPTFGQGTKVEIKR
B17: Trastuzumab HCDR3 variant ATGYGYLLYSDHD (Fab, V domains shown)
VH: B14 VH with S100Y, G102Y, G103L, G104L, F105Y, Y107D, G108H, Y109D
VL: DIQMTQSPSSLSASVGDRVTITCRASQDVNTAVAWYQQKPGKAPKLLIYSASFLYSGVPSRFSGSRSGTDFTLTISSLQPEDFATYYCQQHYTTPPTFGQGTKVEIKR
B18: Trastuzumab HCDR3 variant TRYRGAHGYYFDY (Fab, V domains shown)
VH: B13 VH with A97T, Y100R, S101G, D102A, Y103H, S104G, T106Y, S108D
VL: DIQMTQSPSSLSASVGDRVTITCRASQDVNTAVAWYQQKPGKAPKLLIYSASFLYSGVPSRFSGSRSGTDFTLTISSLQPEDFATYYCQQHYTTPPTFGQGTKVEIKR
B19: Trastuzumab HCDR3 variant AVYGPYGGFSYDS (Fab, V domains shown)
VH: B14 VH with T98V, G99Y, S100G, G101P, G102Y, G108D, Y109S
VL: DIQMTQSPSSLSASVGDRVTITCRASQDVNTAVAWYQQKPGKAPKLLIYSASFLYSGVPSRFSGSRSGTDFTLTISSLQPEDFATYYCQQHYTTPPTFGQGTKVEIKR
B20: Trastuzumab HCDR3 variant SYPDFGYYVYFAY (Fab, V domains shown)
VH: B13 VH with A97S, R98Y, Y99P, Y100D, S101F, D102G, S104Y, Y105V, T106Y, S108A
VL: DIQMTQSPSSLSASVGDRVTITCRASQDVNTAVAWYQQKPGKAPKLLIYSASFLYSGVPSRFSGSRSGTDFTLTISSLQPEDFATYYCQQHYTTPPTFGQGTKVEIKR
B21: Trastuzumab HCDR3 variant ASSGRLDLYDFRL (Fab, V domains shown)
VH: B13 VH with R98S, Y99S, Y100G, S101R, D102L, Y103D, S104L, T106D, S108R, Y109L
VL: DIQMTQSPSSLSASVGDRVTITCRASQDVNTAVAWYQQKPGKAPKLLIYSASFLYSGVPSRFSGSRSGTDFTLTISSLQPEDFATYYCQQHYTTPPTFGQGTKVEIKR
B22: Trastuzumab HCDR3 variant SRYYDYNYYFMDY (Fab, V domains shown)
VH: B13 VH with A97S, S101D, D102Y, Y103N, S104Y, T106F, F107M, S108D
VL: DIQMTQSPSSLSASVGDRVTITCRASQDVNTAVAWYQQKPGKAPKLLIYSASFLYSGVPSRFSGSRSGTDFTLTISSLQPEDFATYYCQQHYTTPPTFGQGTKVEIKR
B23: Trastuzumab HCDR3 variant ARYYYDFGYYFDY (Fab, V domains shown)
VH: B13 VH with S101Y, Y103F, S104G, T106Y, S108D
VL: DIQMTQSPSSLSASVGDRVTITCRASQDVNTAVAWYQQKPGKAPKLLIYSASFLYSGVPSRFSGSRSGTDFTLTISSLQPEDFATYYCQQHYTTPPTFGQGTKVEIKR
B24: Trastuzumab HCDR3 variant SRYGRGVYYYFDY (Fab, V domains shown)
VH: B13 VH with A97S, Y100G, S101R, D102G, Y103V, S104Y, T106Y, S108D
VL: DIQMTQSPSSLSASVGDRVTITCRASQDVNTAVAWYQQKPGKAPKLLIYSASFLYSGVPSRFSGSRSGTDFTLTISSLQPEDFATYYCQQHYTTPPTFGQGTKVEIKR
B25: Trastuzumab HCDR3 variant ARYYYDYGYYFDV (Fab, V domains shown)
VH: B13 VH with S101Y, S104G, T106Y, S108D, Y109V
VL: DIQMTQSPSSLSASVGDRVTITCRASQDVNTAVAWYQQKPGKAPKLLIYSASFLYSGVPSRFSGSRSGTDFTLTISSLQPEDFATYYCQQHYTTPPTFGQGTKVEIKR
B26: Trastuzumab HCDR3 variant ASYGSGSYFSFPL (Fab, V domains shown)
VH: B13 VH with R98S, Y100G, D102G, Y103S, S104Y, Y105F, T106S, S108P, Y109L
VL: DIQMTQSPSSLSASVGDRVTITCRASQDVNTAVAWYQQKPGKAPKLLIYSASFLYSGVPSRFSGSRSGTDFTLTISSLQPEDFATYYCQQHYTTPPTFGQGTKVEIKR
B27: Trastuzumab HCDR3 variant TRYYGDGYYDFDY (Fab, V domains shown)
VH: B13 VH with A97T, S101G, Y103G, S104Y, T106D, S108D
VL: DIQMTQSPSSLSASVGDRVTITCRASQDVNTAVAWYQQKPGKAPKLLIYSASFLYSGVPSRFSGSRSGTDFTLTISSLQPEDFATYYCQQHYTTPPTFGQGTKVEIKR
B28: Trastuzumab HCDR3 variant ARYYSYGGYYFDY (Fab, V domains shown)
VH: B13 VH with D102Y, Y103G, S104G, T106Y, S108D
VL: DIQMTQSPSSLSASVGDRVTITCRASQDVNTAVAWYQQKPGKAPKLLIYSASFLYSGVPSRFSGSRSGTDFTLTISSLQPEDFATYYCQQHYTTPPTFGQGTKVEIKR
B29: Trastuzumab HCDR3 variant ATSGSVDRYDYVY (Fab, V domains shown)
VH: B13 VH with R98T, Y99S, Y100G, D102V, Y103D, S104R, T106D, F107Y, S108V
VL: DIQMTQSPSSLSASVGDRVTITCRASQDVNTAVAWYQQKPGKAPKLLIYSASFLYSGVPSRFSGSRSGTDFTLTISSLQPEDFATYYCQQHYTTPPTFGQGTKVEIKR
B30: Trastuzumab HCDR3 variant ASYYAPGSYGFDP (Fab, V domains shown)
VH: B13 VH with R98S, S101A, D102P, Y103G, T106G, S108D, Y109P
VL: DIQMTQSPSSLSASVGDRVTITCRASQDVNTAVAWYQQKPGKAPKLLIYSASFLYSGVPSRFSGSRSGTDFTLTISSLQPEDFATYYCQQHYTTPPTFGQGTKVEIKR
B31: Trastuzumab HCDR3 variant TRYYGGYGYYFDY (Fab, V domains shown)
VH: B13 VH with A97T, S101G, D102G, S104G, T106Y, S108D
VL: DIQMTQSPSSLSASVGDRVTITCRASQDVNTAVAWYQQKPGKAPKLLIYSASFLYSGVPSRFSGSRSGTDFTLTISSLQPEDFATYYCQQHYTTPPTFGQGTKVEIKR
B32: Trastuzumab HCDR3 variant VRYPEVYGYYFDY (Fab, V domains shown)
VH: B13 VH with A97V, Y100P, S101E, D102V, S104G, T106Y, S108D
VL: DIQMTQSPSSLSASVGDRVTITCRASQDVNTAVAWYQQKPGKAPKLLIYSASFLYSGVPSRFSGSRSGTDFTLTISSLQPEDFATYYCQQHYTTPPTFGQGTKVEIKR
B33: Trastuzumab HCDR3 variant VRGYGYNFYYHGFSY (Fab, V domains shown)
VH: EVQLVESGGGLVQPGGSLRLSCAASGFNIKDTYIHWVRQAPGKGLEWVARIYPTNGYTRYADSVKGRFTISADTSKNTAYLQMNSLRAEDTAVYYCVRGYGYNFYYHGFSYWGQGTLVTVSS
VL: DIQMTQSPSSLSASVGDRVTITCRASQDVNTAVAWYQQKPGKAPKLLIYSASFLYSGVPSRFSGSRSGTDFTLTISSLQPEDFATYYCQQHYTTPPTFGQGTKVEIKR
B34: Trastuzumab HCDR3 variant AYTGAPHGGYHYYAY (Fab, V domains shown)
VH: EVQLVESGGGLVQPGGSLRLSCAASGFNIKDTYIHWVRQAPGKGLEWVARIYPTNGYTRYADSVKGRFTISADTSKNTAYLQMNSLRAEDTAVYYCAYTGAPHGGYHYYAYWGQGTLVTVSS
VL: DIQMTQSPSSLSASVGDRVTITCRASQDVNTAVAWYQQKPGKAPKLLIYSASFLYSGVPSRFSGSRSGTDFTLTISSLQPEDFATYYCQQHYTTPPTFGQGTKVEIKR
B35: Trastuzumab HCDR3 variant ARSGGHGVNGHWRSF (Fab, V domains shown)
VH: EVQLVESGGGLVQPGGSLRLSCAASGFNIKDTYIHWVRQAPGKGLEWVARIYPTNGYTRYADSVKGRFTISADTSKNTAYLQMNSLRAEDTAVYYCARSGGHGVNGHWRSFWGQGTLVTVSS
VL: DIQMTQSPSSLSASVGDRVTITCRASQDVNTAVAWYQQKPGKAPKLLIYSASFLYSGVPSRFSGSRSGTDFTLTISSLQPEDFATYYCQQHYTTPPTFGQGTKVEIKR
B36: Trastuzumab HCDR3 variant ARGGYYGYWYYFDY (Fab, V domains shown)
VH: EVQLVESGGGLVQPGGSLRLSCAASGFNIKDTYIHWVRQAPGKGLEWVARIYPTNGYTRYADSVKGRFTISADTSKNTAYLQMNSLRAEDTAVYYCARGGYYGYWYYFDYWGQGTLVTVSS
VL: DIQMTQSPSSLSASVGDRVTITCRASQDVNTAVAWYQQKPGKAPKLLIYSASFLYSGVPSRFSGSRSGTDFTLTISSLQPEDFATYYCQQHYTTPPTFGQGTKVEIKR
B37: Trastuzumab HCDR3 variant ARSHYGYYDYYTDF (Fab, V domains shown)
VH: B36 VH with G99S, G100H, Y102G, G103Y, W105D, F108T, Y110F
VL: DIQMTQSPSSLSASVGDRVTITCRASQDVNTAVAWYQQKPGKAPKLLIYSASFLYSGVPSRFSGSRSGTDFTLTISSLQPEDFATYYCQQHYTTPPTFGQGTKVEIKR
B38: Trastuzumab HCDR3 variant ARLAFDSVSFYSDY (Fab, V domains shown)
VH: B36 VH with G99L, G100A, Y101F, Y102D, G103S, Y104V, W105S, Y106F, F108S
VL: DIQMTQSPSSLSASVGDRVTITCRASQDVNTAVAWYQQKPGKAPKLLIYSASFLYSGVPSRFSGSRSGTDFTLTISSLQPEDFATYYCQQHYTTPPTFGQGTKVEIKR
B39: Trastuzumab HCDR3 variant ARYRGGYGGYVFDP (Fab, V domains shown)
VH: B36 VH with G99Y, G100R, Y101G, Y102G, G103Y, Y104G, W105G, Y107V, Y110P
VL: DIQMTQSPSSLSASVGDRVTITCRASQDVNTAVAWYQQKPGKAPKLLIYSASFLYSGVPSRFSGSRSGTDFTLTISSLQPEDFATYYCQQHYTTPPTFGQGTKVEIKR
B40: Trastuzumab HCDR3 variant ATWPHINTRIYAFDP (Fab, V domains shown)
VH: EVQLVESGGGLVQPGGSLRLSCAASGFNIKDTYIHWVRQAPGKGLEWVARIYPTNGYTRYADSVKGRFTISADTSKNTAYLQMNSLRAEDTAVYYCATWPHINTRIYAFDPWGQGTLVTVSS
VL: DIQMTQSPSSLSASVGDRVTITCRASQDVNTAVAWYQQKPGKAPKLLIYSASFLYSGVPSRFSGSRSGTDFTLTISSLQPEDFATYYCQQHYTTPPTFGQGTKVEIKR
B41: Multi-step trastuzumab HCDR3 variant ARSGGSGYYYYDY (SEQ ID NO: 524) (Fab, V domains shown)
VH: B14 VH with T98R, G99S, S100G, G102S, G104Y, F105Y, S106Y, G108D
VL: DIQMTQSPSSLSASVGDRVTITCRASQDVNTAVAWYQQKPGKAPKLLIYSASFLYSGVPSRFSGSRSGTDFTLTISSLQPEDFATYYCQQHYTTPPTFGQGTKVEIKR
B42: De novo trastuzumab HCDR1|2|3 variant GFNFKDTY / IYPANGYT / ASDGGSYSYAFDY (Fab, V domains shown)
VH: B13 VH with I29F, T54A, R98S, Y99D, Y100G, S101G, D102S, T106A, S108D
VL: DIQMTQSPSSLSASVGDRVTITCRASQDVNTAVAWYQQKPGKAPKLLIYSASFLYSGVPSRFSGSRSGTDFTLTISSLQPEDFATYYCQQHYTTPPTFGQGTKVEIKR
notes: also called AI Design 5

The binders below were run against human epidermal growth factor receptor 2 (HER2) extracellular domain (human, UniProt P04626 23-629) (assay: SPR).

Binder	Kd	log(KD (M))
B1	45.1 nM	-7.35 log(M)
B2	273 nM	-6.56 log(M)
B3	164 nM	-6.79 log(M)
B4	50.2 nM and 50.1 nM	-7.3 log(M)
B5	49.4 nM	-7.31 log(M)
B6	74.6 nM	-7.13 log(M)
B7	151 nM	-6.82 log(M)
B8	41.5 nM	-7.38 log(M)
B9	202 nM	-6.7 log(M)
B10	109 nM	-6.96 log(M)
B11	95 nM	-7.02 log(M)
B12	79.2 nM	-7.1 log(M)
B13	112 nM	-6.95 log(M)
B14	182 nM	-6.74 log(M)
B15	46.1 nM	-7.34 log(M)
B16	78.1 nM	-7.11 log(M)
B17	171 nM	-6.77 log(M)
B18	35.5 nM	-7.45 log(M)
B19	70.7 nM	-7.15 log(M)
B20	36.8 nM	-7.43 log(M)

Binder	Kd	log(KD (M))
B21	171 nM	-6.77 log(M)
B22	141 nM	-6.85 log(M)
B23	42.8 nM	-7.37 log(M)
B24	79.7 nM	-7.1 log(M)
B25	30 nM	-7.52 log(M)
B26	53.9 nM	-7.27 log(M)
B27	29.2 nM	-7.53 log(M)
B28	106 nM	-6.98 log(M)
B29	155 nM	-6.81 log(M)
B30	135 nM	-6.87 log(M)
B31	41.6 nM	-7.38 log(M)
B32	36.3 nM	-7.44 log(M)
B33	147 nM and 146 nM	-6.83 log(M)
B34	49.4 nM	-7.31 log(M)
B35	49.8 nM	-7.3 log(M)
B36	51.2 nM	-7.29 log(M)
B37	116 nM	-6.94 log(M)
B38	187 nM	-6.73 log(M)
B39	120 nM	-6.92 log(M)
B40	117 nM	-6.93 log(M)

What follows are binders tested against human epidermal growth factor receptor 2 (HER2) extracellular domain (human, UniProt P04626 23-629) (assay: SPR, Fab format).

Binder	Kd [nM]	log(KD (M)) [log M]
B41	1830	-5.74
B42	642	-6.19
